Results from patent US20150111306, “HEMOGLOBIN A1c-SPECIFIC APTAMER, HEMOGLOBIN-SPECIFIC APTAMER, AND APPLICATIONS THEREOF” (National Tsing Hua University, published 2015).

Target: Hemoglobin (Hb) (UniProt P69905;P68871 P69905:2-142,P68871:2-147)
Assay: pulldown; biotin-aptamer streptavidin bead sandwich chemiluminescence in blood, R2=0.9821
Settings: tags: conjugated to magnetic beads; also captured from blood; chain copies: alpha2beta2 tetramer (inferred); label: biotin (blood detection assay); stem-loop (MFOLD, -9.67 kcal/mol)
Source text: The detection of this embodiment is also a two-antibody assay; therefore, please refer to Example 2 for the detection process. In this embodiment, the nucleic acid sequence of SEQ ID NO: 7 with lower free energy was used as the aptamer. The aptamer was labeled by biotin and was used to replace the anti-Hb antibody in the two-antibody assay. The surface of the magnetic bead used was also conjugated with streptavidin. Upon mixing with blood, the hemoglobin-specific aptamer would bind to hemoglobin in blood. After a magnetic field was applied and the unbound substances were washed away, an acridinium ester-labeled anti-Hb antibody was added. The acridinium ester-labeled anti-Hb antibody produces chemiluminescense, thus, can be detected using luminometer.

Sequence of Hemoglobin (Hb) (P69905 2-142, chain 1 of 2): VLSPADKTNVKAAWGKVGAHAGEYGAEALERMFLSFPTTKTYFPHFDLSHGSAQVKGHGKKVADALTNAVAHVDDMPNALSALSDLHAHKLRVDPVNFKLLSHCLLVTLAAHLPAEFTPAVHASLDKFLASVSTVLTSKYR
Sequence of Hemoglobin (Hb) (P68871 2-147, chain 2 of 2): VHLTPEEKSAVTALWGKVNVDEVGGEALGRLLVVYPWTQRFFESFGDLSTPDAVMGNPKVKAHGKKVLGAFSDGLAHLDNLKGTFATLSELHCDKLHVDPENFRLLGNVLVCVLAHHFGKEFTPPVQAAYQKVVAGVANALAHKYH

B1: Hb-specific aptamer SEQ ID NO: 7 (ssDNA)
DNA: GGCAGGAAGACAAACACCAGGTGAGGGAGACGACGCGAGTGTTAGATGGTAGCTGTTGGTCTGTGGTGCTGT
- binding result: binds
